Measured values taken from patent publication US9850293B2, “Targeting trastuzumab-resistant HER2+ breast cancer with a HER3-targeting nanoparticle” (priority 2014, dated 2017).

Legend:
U251 human glioma cells = assay: Toxicity to glioma cells (cell count); type: cell-based; conditions: four days
Procedure: Significant differences were determined by 2-tailed tests.
Cells were trypsinized and counted on the last day.

MDA-MB-435 cells = assay: Trastuzumab pre-treatment before HerDox, cell survival; type: cell-based, human; conditions: MDA-MB-435, 24 h pre-treatment
From the text: N=3. […] N=3. […] N=3. […] N=3. […] N=3. […] N=3.

[1] = tested on: SKBR3 trastuzumab-resistant cells; assay: Tumor cell killing in culture; type: cell-based, human; conditions: 48-72 h after treatment
Procedure: FIG. 21 depicts graph that show the results of the administration of HerDox on various cells. […] N=3. *=p<0.05 compared to parental. […] N=3.
N=3. *, p<0.05 compared to parental. […] N=3. […] Parental and resistant cell lines were treated with HerDox−/+HER3 blocking peptide (ErbB3 human; Prospec), and tested for cell survival 48 hours later. […] Treatments were compared to mock (saline)-treatment. […] N=3. *, p<0.05 compared to parental. […] N=3.
Each therapeutic was administered at concentration ranges previously established for eliciting therapeutic efficacy.
Each therapeutic was administered at concentration ranges previously established or known in the art for eliciting therapeutic efficacy.

JIMT-1 tumors = assay: Trastuzumab-resistant tumor growth in vivo; set-up: species or system mouse; conditions: 0.004 mg Dox/kg/injection, twice-weekly IV
Procedure: (§1) Tumor volumes were measured by calipers. Day 0 corresponds to first day of treatment. N=10 tumors per treatment.
as §1
(§2) The efficacy of HerDox was also examined on a cell line with pre-existing resistance.
(§3) The contribution of HER3 to targeted toxicity was evaluated by assessing whether pre-adsorbing HerDox with a peptide comprising the ligand-binding domain of HER3 blocked cytotoxicity.

[2] = tested on: GFP(+) MDA-MB-231 (HER2−); assay: Targeting in a mixed cell culture; type: cell-based, human; conditions: 0.5 μM Dox, day 2
Procedure: (§4) FIG. 9 (A) illustrates targeting in a mixed cell culture.
(§5) FIG. 9 (B) further illustrates targeting in a mixed cell culture. Cell survival was determined by calculating the relative doubling time (DT) of experimental (exp) cells normalized by control (con) cells based on the crystal violet stains (total cells) and GFP fluorescence (MDA-MB-231 cells). The DT of MDA-MB-435 was determined by subtracting the DT of MDA-MB-231 from the total cell DT. Relative survival is shown for Day 2 of treatment.
(§6) By three days, HerDox reduced HER2+ cell numbers by over 75% whereas HER2− cell survival was unaffected (FIG. 7). […] These findings emphasize the importance of targeting by showing that the untargeted drug affects nontarget (i.e. HER2−) cells. […] To test receptor targeting, the inventors used free heregulin ligand (Her or eHRG) as a competitive inhibitor. […] As a final in vitro challenge, the inventors tested whether HerDox induces toxicity specifically to HER2+ cells in a mixed culture of HER2+ and HER2− breast cancer cells. To do this, the inventors produced a HER2− cell line tagged with green fluorescent protein (GFP) for cell identification in the mixed culture (FIG. 9-A). […] Altogether, these findings indicate that HerDox has the capacity to preferentially target toxicity to HER2+ cells. […] In serum-containing media, no such loss from HerDox is detectable. […]

[3] = tested on: MDA-MB-435 (non-GFP, HER2+); assay: Targeting in a mixed cell culture; type: cell-based, human; conditions: 0.5 μM Dox, day 2
Procedure: as §4, §5, §6

T47D = assay: Cytotoxicity on cell lines (HerDox dose curves); type: cell-based, human; conditions: concentration yielding 50% reduction in cell survival, mean ± SD
MDA-MB-435 (HER2+) = assay: Targeted toxicity, cell survival by MTT assay; type: cell-based, human
Procedure: FIG. 7 illustrates targeted toxicity. […] Cell titer was determined by metabolic (i.e. MTT) assay. FIG. 7 upper panel illustrates the effect of HerDox on MDA-MB-231 (HER2−) and MDA-MB-435 (HER2+) cell survival. Relative surviving cell numbers are represented as a % of corresponding untreated cells. […] Relative survival (as % of untreated cells) is shown for Day 3 of treatment.
FIG. 8 illustrates receptor specificity. MDA-MB-435 (HER2+) cells were incubated with free ligand (eHRG) at 10× molar excess of HerDox for one hour at 4° C. Media was aspirated to remove free eHRG and fresh media containing HerDox (0.5 μM) was added to cells. Cell survival was measured by MTT assay and represented as a % of relative untreated cell numbers.
N=3. […] Bar, about 4 μm. […] (E) compares HerDox and Dox on off-target tissue. […] Green fluorescence in nuclei indicates apoptosis (positive TUNEL stain).
By three days, HerDox reduced HER2+ cell numbers by over 75% whereas HER2− cell survival was unaffected (FIG. 7). […] These findings emphasize the importance of targeting by showing that the untargeted drug affects nontarget (i.e. HER2−) cells. […] To test receptor targeting, the inventors used free heregulin ligand (Her or eHRG) as a competitive inhibitor. […] As a final in vitro challenge, the inventors tested whether HerDox induces toxicity specifically to HER2+ cells in a mixed culture of HER2+ and HER2− breast cancer cells. To do this, the inventors produced a HER2− cell line tagged with green fluorescent protein (GFP) for cell identification in the mixed culture (FIG. 9-A). […] Altogether, these findings indicate that HerDox has the capacity to preferentially target toxicity to HER2+ cells. […] In serum-containing media, no such loss from HerDox is detectable. […] Co-migration of HerPBK10 bands further verified that the conjugates remained intact in the cell media.

[4] = HerDox stability in cell culture media (agarose gel); type: in vitro ADME; conditions: serum-containing media, 37° C.
Procedure: FIG. 9 (C) illustrates that there is stability in cell culture. Aliquots of culture media containing HerDox (after incubation for the indicated times at 37° C.) were electrophoresed on a 2% agarose gel. HerDox incubated at 37° C. in HEPES-buffered saline, lacking serum, was processed in parallel. Dox fluorescence was visualized by UV excitation. Free Dox (Dox alone) is not retained in the gel whereas Dox incorporated in HerDox is. To align fluorescent bands with HerPBK10 and assess loading per lane, the gel was stained with Coomassie blue, which also identified serum protein from culture media samples.
By three days, HerDox reduced HER2+ cell numbers by over 75% whereas HER2− cell survival was unaffected (FIG. 7). […] These findings emphasize the importance of targeting by showing that the untargeted drug affects nontarget (i.e. HER2−) cells. […] To test receptor targeting, the inventors used free heregulin ligand (Her or eHRG) as a competitive inhibitor. […] As a final in vitro challenge, the inventors tested whether HerDox induces toxicity specifically to HER2+ cells in a mixed culture of HER2+ and HER2− breast cancer cells. To do this, the inventors produced a HER2− cell line tagged with green fluorescent protein (GFP) for cell identification in the mixed culture (FIG. 9-A). […]

JIMT-1 cell line = assay: Tumor cell killing in culture, pre-existing resistance; type: cell-based, human; conditions: JIMT-1, dose-dependent, maximum
Procedure: N=3. *, p<0.05 compared to parental. […] N=3. […] Treatments were compared to mock (saline)-treatment. […] N=3. *, p<0.05 compared to parental. […] N=3.
as §2, §3

B1: HerDox: non-covalent complex of HerPBK10, double-stranded oligonucleotide and intercalated Dox (Unit A+Unit B+Unit C) (conjugate)
chain: SHLVKCAEKEKTFCVNGGECFMVKDLSNPSRYLCKCQPGFTGARCTENVPMKVQNQEKAEELYQKMRRAAMYEEGPPPSYESVVSAAPVAAALGSPFDAPLDPPFVPPRYLRPTGGRNSIRYSELAPLFDTTRVYLVDNKSTDVASLNYQNDHSNFLTTVIQNNDYSPGEASTQTINLDDRSHWGGDLKTILHTNMPNVNEFMFTNKFKARVMVSRLPTKDNQVELKYEWVEFTLPEGNYSETMTIDLMNNAIVEHYLKVGRQNGVLESDIGVKFDTRNFRLGFDPVTGLVMPGVYTNEAFHPDIILLPGCGVDFTHSRLSNLLGIRKRQPFQEGFRITYDDLEGGNIPALLDVDAYQASLKDDTEQGGGGAGGSNSSGSGAEENSNAAAAAMQPVEDMNDHAIRGDTFATRAEEKRAEAEAAAEAAAPAAQPEVEKPQKKPVIKPLTEDSKKRSYNLISNDSTFTQYRSWYLAYNYGDPQTGIRSWTLLCTPDVTCGSEQVYWSLPDMMQDPVTFRSTRQISNFPVVGAELLPVHSKSFYNDQAVYSQLIRQFTSLTHVFNRFPENQILARPPAPTITTVSENVPALTDHGTLPLRNSIGGVQRVTITDARRRTCPYVYKALGIVSPRVLSSRTFKKKKKKKKKK
modifications: left off: small tags and cut ends
U251 human glioma cells; 0.5 μM or 1 μM
  toxicity relative to the equivalent concentration of Dox: 8-10 times
U251 human glioma cells
  factor less HerDox eliciting the same toxicity as Dox: 10 ×
MDA-MB-435 cells
  enhancement of HerDox toxicity by trastuzumab pre-treatment: modest enhancement in toxicity
[1]
  cell death: > 80%
JIMT-1 tumors
  effect on JIMT-1 tumor growth: ablated tumor growth
[2]
  GFP (HER2−) cell growth in mixed culture: not altered
[3]
  non-GFP (HER2+) cell proliferation in mixed culture: nearly completely reduced
T47D
  EC50: 0.64 ± 0.04 µM
MDA-MB-435 (HER2+); 0.5 μM with respect to Dox, by three days
  reduction of HER2+ cell numbers: over 75%
MDA-MB-435 (HER2+); eHRG at 10× molar excess, HerDox 0.5 μM
  cell killing with free heregulin ligand as competitive inhibitor: completely inhibited cell killing
[4]
  loss of Dox fluorescence from conjugate in culture media: no such loss
JIMT-1 cell line
  cells killed: up to 90%
